According to the Immune Epitope Database (IEDB):

Experiments:
Assay in all cases: IEDB peptide-MHC binding, purified MHC/competitive/fluorescence; filed as Kd, often an IC50 or EC50 that approximates it; ≥ and ≤ were set here for values at or beyond the usual limits of such assays
Conditions in all cases: source organism: Shigella flexneri 5 str. 8401
HLA-B*57:01 = molecular target: HLA-B*57:01
HLA-B*14:02 = molecular target: HLA-B*14:02
HLA-B*51:01 = molecular target: HLA-B*51:01
HLA-B*46:01 = molecular target: HLA-B*46:01
HLA-B*27:05 = molecular target: HLA-B*27:05
HLA-A*02:03 = molecular target: HLA-A*02:03
HLA-A*26:01 = molecular target: HLA-A*26:01
HLA-B*15:01 = molecular target: HLA-B*15:01
HLA-B*58:01 = molecular target: HLA-B*58:01
HLA-A*11:01 = molecular target: HLA-A*11:01
HLA-B*18:01 = molecular target: HLA-B*18:01
HLA-B*07:02 = molecular target: HLA-B*07:02
HLA-B*15:17 = molecular target: HLA-B*15:17
HLA-A*03:01 = molecular target: HLA-A*03:01
HLA-A*30:01 = molecular target: HLA-A*30:01
HLA-A*02:19 = molecular target: HLA-A*02:19
HLA-A*30:02 = molecular target: HLA-A*30:02
HLA-A*66:01 = molecular target: HLA-A*66:01
HLA-A*68:02 = molecular target: HLA-A*68:02
HLA-B*40:01 = molecular target: HLA-B*40:01
HLA-A*01:01 = molecular target: HLA-A*01:01
HLA-B*44:02 = molecular target: HLA-B*44:02
HLA-A*29:02 = molecular target: HLA-A*29:02
HLA-B*27:03 = molecular target: HLA-B*27:03
HLA-B*08:01 = molecular target: HLA-B*08:01
HLA-A*02:01 = molecular target: HLA-A*02:01
HLA-B*53:01 = molecular target: HLA-B*53:01

Measured: Kd

FGALFMWLL
≥ 20 µM: HLA-B*57:01 | HLA-B*51:01 | HLA-B*46:01 | HLA-A*02:03 | HLA-A*26:01 | HLA-B*15:01 | HLA-B*18:01 | HLA-B*15:17 | HLA-A*03:01 | HLA-A*02:19 | HLA-B*27:03 | HLA-A*02:01
0.138 µM: HLA-A*29:02
0.741 µM: HLA-A*68:02
≥ 5 µM: all other assays above
